Results from the DeepSol protein solubility set.

Test: soluble on expression in E. coli; label from the status in PepcDB or PDB records

| Sequence | soluble on expression in E. coli |
| --- | --- |
| MGSDKIHHHHHHMIKLILSAPVPAMAVAFEHSFQNTENVEIIPGPFETIPEFDCMVSAANSFGLMDGGVDAAITAYFGPQLQERVQQHILREYLGEQPVGTAFVIETGNSKYPWLVHAPTMRVPLIIDGTDAVYNATRAALLAIFQHNKSAGEDRKIKSVVFPAMGAGCGQVSPGSVARQMKLAWDGFINCTTEINWQYASARQNAVFSTTAYCPSKALCPNARTEYIGFGDYRTYCKKSGNTCISPRHQVDDIYIGAHSHAVFLSPNSHGKHLKPEYLSGVKNDV | not soluble |
| MGSDKIHHHHHHMILDERVNSNFDQLNDNDIQIAHYVNTHIDVCKNMKIQDLASQTHASNATIHRFTRKLGFDGYSDFKSFLKFEDSKNHQLPSDSMEQFKQEIENTFNYLERIDYRLLTHKMHHATTIYLYGTGRAQMNVAEEAQRILLTMHKNIILLHDVHELKMVLNKTIPEDLFFIISLSGETHQLKEVTQLLQLRQKYFISVTTMKDNTLAQQADYNVYVSSNTFYLNDGTDYSSFISYHIFFETLLRKYNEYKENHELT | not soluble |
| MGSDKIHHHHHHMIMINKTKRLMVSRQVKIPRKTYFWGPTPNPGMHPKDQSVTLLSIIRDYLKLSDKEREAARILANGLVKVDGKTVREKKFAVGFMDVIEINGESYRVVYNDQGALVLMKETKERASMKLLKVRSKVIAPGNRIQLGTHDGRTFITDDKSKKVGDVWAVSVPDMKISEIIKMQPGNKAYITAGSHVNQTGTISKIEAKEGSSANLVHFQEGFSTIKDHVFMIGSSKFSFVLSPEEVIP | not soluble |
| MGSDKIHHHHHHMIMLTVSDYLAQPVVSPDVSIRYGDHPDQFGDLYLPAQVHPAPVVMMIHGGCWQAAYPLTPLGECCAALRARGYAVWNLEYRRLGNGGGWPSTFLDVAAGADHLRVLAEHYPLDLNRVVVVGHSAGGHLALWLATRPKLPPTSPLYIPHPLPVHGVVALAAVADLRRGVTATACGTACLELIDNEESRCAEASPHARLPLDIPHYHLVGGDDPIVPASYVAAFVDAARQAGDLAHLTIVPKCGHFELTTPHSQAWQTVVQTIDKACSLNRS | not soluble |
| MGSDKIHHHHHHMINTKNLNVFYNENKVLKDIQLEVIPGRITGIIGPNGAGKSTLIKAILNIVPHSGEILINGEVSKKQLKKIAYVEQKSDIDHTFPIKVKECVSLGTYTGLKLFQKLGAKEWSRVSEALQKVNLLDYENRQIGELSGGQFQRVLLARCLVQEADYIFLDEPFVGIDSISEKIIMDILQDLKHQGKTILIVHHDLSKVKEYFDDIIILNRELIAYGPINENFSQKNLKKAYGDNIFIGD | not soluble |
| MGSDKIHHHHHHMIPEDVLAFFDLKQGRRPKAILNVLVGKMTVSALFWGLEYDILEYLNFWKTIDTTSFLENVDRAVEGGFLAKKDELIYLTEAGQQKQFSCTTPTPFIKKVRLDEAIDLLLLANQVISEFSFKNNRYIPVSDNLRINVILKNWFKQLKSRNHHTTDIVQKYTQGLDELLSQLQQHDADILLSYLPNHVDPGWTIDQLAQAFGISKFQMELKIRLIFSKIISDAVLTKIAPFVDLLNSTIKENVMPDSTYQTWQLIRQGKTVDEVARLKHVKTNTVKEHILMAAILDSNFPFDKFVRFNFEIGKHPTEVDFRSIQSQIADITFFDFRLIQIRKIKEQQNNNGNR | not soluble |
| MGSDKIHHHHHHMIPLSRPDINEQDIERVVEVLKSGRLSLGEYTKRFGEMVAEYTGARFGWAVSSGTAALHLILESLDIDEGDLILVPSFTFIASVNVILMKRAIPVFVDVDERTLNVSPETLEEAVKRCLKGFKQGNIEIKGKPRLFMAVDVFGHPLDWDGILDVCQRYGIAVVEDSCEALGSEYKGRKVGTFGVAGAFAFYPNKQITTGEGGVVVTNDEKIHTAVKSMSNQGRGEGDEWLYHVRFGYNYRIDEMSAALGCSQMERIDEIVEKRAEAAERYSKMLKEFSWVKVPVVEDYVTKMSWFVYVVRLEGPDRNRVMRYMEEKGVQVRNYFYPVHFQPFYEKLFGSMKGLLPVTERESEKTLAIPFFTSITESEQKTVVEILREAVERVG | not soluble |
| MGSDKIHHHHHHMIQGKKFISPGTWFSMIYPSDWSEFEDGEGSFLFYNPEHWTGNFRISAYKEDAAAPGGMNYGKDSVRQELKENPSASLVKVGHLECAYSKEMFEEEGIYYTSHLWVTGIDNVAFECSFTVPKGEHVDEAEKIISSLEIRKDGQKYPAEIIPIRLSEIYQVNEAYEWVTDTVKTQLKKDFQGLEEDLQKIQDVIDSGVLSPKKKEPWLAFGIAICTILANEVEGMEWMTLVDGNREVPVLRYEGSEQLIDPMKLLWSRVRAGETCEVAEAYKQALIH | not soluble |
| MGSDKIHHHHHHMIREVKFESQDRRIKQIIAALNENGIKDIEEANAICEAAGLDPYKTCEETQPICFENAKWAYVVGSAIALKKGCKNAAEAAEAIGIGLQAFCIPGSVADDRKVGIGHGNLAAMLLREETKCFAFLAGHESFAAAEGAIKIAAKADKVRKEPLRCILNGLGKDAAQIISRINGFTYVQTEFDYFTGELKVVREIAYSDGPRAKVKCYGADDVREGVAIMWKEGVDVSITGNSTNPTRFQHPVAGTYKKERVLAGKPYFSVASGGGTGRTLHPDNMAAGPASYGMTDTMGRMHSDAQFAGSSSVPAHVEMMGFLGIGNNPMVGCTVACAVDVATALSK | not soluble |
| MGSDKIHHHHHHMIRIGIDVGGTNTDAVVMDGTQVVAGVKSATTADVMSGVVNALKDVLAASRMAASAVDVVMIGTTHFTNAVVQRRDLAPTAAVRLGLPATASLPPMVDWPEDLKTAIGNHAWLAHGGNEFDGRVISPLNEEELLGIAAEIKVRGINSIAITSVLSPVSNEFEKRAAEIFAKALPGAHITLSSDIGRIGLLERENAAIMNACLRDLSAHVIEAFRKAIAETGIRGRFFLTQNDGTLMDAAFAEKFPVLTFASGPTNSMRGAAFLSGVDDAIVVDIGGTTSDVGSLQNGFPRQATVAVEVGGVRTNFRMPDVFSIGLGGGSLVVDGEHGVKVGPTSVGYRINTEALIFGGETLTTTDITVAAGNAELGDKARVAQLPKDLLDRTQAKILSMLEDCVERSRLSPDPLPVIVVGGGSILVNGPIGGLEVIKPNYFGVANAVGAAIAQVSGEIDRVYALAEIGRDQALDDAKARAIDAAVAAGASRDSVEIVDVEDVPLAYLPGNATRVRVKAVGELHVA | not soluble |
| MGSDKIHHHHHHMIRKIVEIDQEKCNGCGICVPACAEGAIRIENGKAVLAADNLCDGLGACLGECPLDAIRIIERDADEFDEAAVEAHLGQTSRESHHAAHQPAPVHGGCPGSRAMVLDRPATESVRDVPRQESRLRQWPVQLHLVPTSAPYFRNADLLIAADCVPFAYADFHREFLDGRAVVVGCPKLDDNRFYTEKLTELIRVNDLKSITVVRMEVPCCGGIVMAARQALAASSKDIPLREVTVGISGELKGA | not soluble |
| MGSDKIHHHHHHMITESRQMLDKRNRPLRDLRISVTDRCNFRCTYCMPAELFGPDYPFLKKEELLSFEELERLATLFVTRFGVEKIRLTGGEPLMRKDMPELIKKLARIPGIRDIAMTTNGSLLPVYAKRLKEAGLKRVTISLDSLEDERFKKINGRGVSVSKVLEGIEAAKQAGLGVKINMVVQKGVNEKDILPMARYFKEKGHILRFIEFMDVGNTNQWEKKDVMTKAEIIDLINKHMPVEPIAPNYIGEVASRFRYLDGSGEIGVISSVSDAFCGSCNRARLSARGELFTCLFASSGFDLRAPVRQELSDDELSEMIGTVWKNRIDQYSVDRTLSKASGKKKVEMSYIGG | not soluble |
| MGSDKIHHHHHHMITSVAVVGCGWFGLPLAKALLSQGLKVTGSKRSPQEAEALSADGITGFALDLETLESEDLSSQTREAITQGLACDAIVINIPPGLRRGDNGYLDRLKRLKALMGTHEYQRIIFISTSGVYPAGGDSSGSGCVESDAKVHSPASETLLAAEALFSGANSADGVSNNHSDGSESNNSCVVVRFAGLIGPKRHPGRFLAGREDVPGGNLAVNMVHLDDCIGAVTLLLKAEGALSPAYNLCAPLHPTKAEFYQKAATQQGLTPPSFIEGDLAEDKRVDGGLITRELNYQYKFTDPLAMLTHC | not soluble |
| MGSDKIHHHHHHMITTWKHHETIEKAKRNAEQKIVSNVEHVEHIALVNQKRVLDAFKRKQVSEHHFTPSTGYGYDDLGRETLEAVYADVFGAETALVRPQIISGTHAIATVLFGLLRPGDELLYITGKPYDTLEEVIGIRGEEGGGSLKDFGITYHAVPLTAEQKVDKAAVKAAMNERTKVIGIQRSKGYADRPSFSINEIEQMVQFVKGINPNVIVFVDNCYGEFVEAKEPCHVGVDVIAGSLIKNPGGGIVKTGGYVAGKAPYVKQASYRLAAPGIGTEGGATLYSLLEMFQGLFLAPHVVSQAVKGAHFTAAFLDELGMRTSPRYDEQRTDLIQSVQFPDREKMIAFCQAIQAASPIDAHVTPQPSSMPGYEDPVIMAAGTFIQGASIELTADGPVRPPYIAYVQGGLTYEHVKLAVMQAADEMLSLETKGTPS | not soluble |
| MGSDKIHHHHHHMIYMRLKLSFIYDGDKFQPNKHAVQGFIYNMLRGTEYEDRHNRRGFKFFTFSDVFRDSKGYYSLLIASPDSGFINALYLSLKDRDHVYIGKDEIKLVEVKKFKLKLKRAFQTGSPVVIYKDSRKNEYFKLHEHRDLLFFLQRLKENAEKKFNSFYGDEFHLEGLIFDRVIPKVRKNGKVDVYVKVVKNGVPFPVIGTNWELLEKERIKPEERRFYRFIMDCGLGEKNSLGFGFLNPIKGVKN | not soluble |
| MGSDKIHHHHHHMKAKAAFFDIDGTLYREGLISEVFKKLIKYEIIDEEKWYKEVRPEFEKWDNRKGDYDDYLLKMTEIYVDALNGLSKSQVEFIASQVVNQKGERVYTYTRDRIKWHKERGHKIITISGSPIELVRNMAEKYGFDDYRGAEYLLDENDVYTGEVIPMWDSKSKERAVHELEAKYNIDLGESYAYGDTSGDLTMLKMVGNPVCINPTKELVKEILSAAAVKNKIRIIVERKDMIYKISSRCLECDCEFVL | not soluble |
| MGSDKIHHHHHHMKALAIAATGMNAQQTNLEVIANNIANINTTGYKRARAEFSDLLYQVDRTQGVPNRSNASLVPEGVSIGLGVKTTAVRNVHTQGELTSTGNSFDMALTGRGWFQIEGADGGTLYTRAGAFNTNATGQLVTVDGANVIPAITVPTDAVEVIVNKTGQVFARIDGQTNLQTLGQLQIVNFANEAGLAPLGDNLFQETTASGPANAGVPGDPGFATIQQGYLEASNVDPVKEITELISAQRAYEMNSKVIQAADDMASVVSKNIR | not soluble |
| MGSDKIHHHHHHMKALWILLSLTLWLFGAQNLELIKGQALFLELDKKDFLSLKNNDKNIPTFAHPKNQEKILAIFSLPYKNPPQNTKLIAFYKDKKEEIFIKTLEGNYKSEKLQIENKKIFPPKTIQERITKELKEANAIYSSYTPKALFNGAFNIPLNSFITSDFGKARTFNEKVASYHSGTDFRATTGTPIYAANSGVVKIAKDRYFAGNSVVIDHGFGIYSQYYHLSKIDVKIGQKIKKGELIGLSGATGRVSGPHLHFGILAGGKQVDPLDFVSKFNAIFQ | not soluble |
| MGSDKIHHHHHHMKDNFFGREYDIAPAGGETGQAFVATHEDEKFFLKRNSSPFLAALSVENIVPKLVWTRRVENGDVITAQKWVNCHILTREEMVGPRVAKLLAKIHHSENLRHMLEKIENCYFSAHQLLARLKAEMKAKNEANNVMQTAIEYLERNITAVEKADYVVCHGDVNHNNWIISEENELFLVDWDGAMLADAANDLGMILYQYIPREGWDEWLSNYGTTLTSELHRKLKWYTLCQTVMQLTTNQSEEAYERAKQIFQNAIEDDEV | not soluble |
